Results reported in IntAct's records for PubMed 27951647.

B1: Acid stress protein IbaG (Escherichia coli (strain K12)), P0A9W6 (parent)
chain: MENNEIQSVLMNALSLQEVHVSGDGSHFQVIAVGELFDGMSRVKKQQTVYGPLMEYIADNRIHAVSIKAYTPAEWARDRKLNGF
partner: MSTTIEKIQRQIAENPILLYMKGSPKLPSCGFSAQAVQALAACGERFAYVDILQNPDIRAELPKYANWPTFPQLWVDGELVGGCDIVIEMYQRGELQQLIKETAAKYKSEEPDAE

Variants of: B1
Settings: with glrx4_ecoli grxD
For MENNEIQSVLMNALSLQEVHVSGDGAHFQVIAVGELFDGMSRVKKQQTVYGPLMEYIADNRIHAVSIKAYTPAEWARDRKLNGF, the “effect of a mutation on the interaction” value was “with no effect”. In the case of MENNEIQSVLMNALSLQEVHVSGDGSAFQVIAVGELFDGMSRVKKQQTVYGPLMEYIADNRIHAVSIKAYTPAEWARDRKLNGF, the “effect of a mutation on the interaction” value is reported as “with no effect”. MENNEIQSVLMNALSLQEVHVSGDGSCFQVIAVGELFDGMSRVKKQQTVYGPLMEYIADNRIHAVSIKAYTPAEWARDRKLNGF was tested, and the “effect of a mutation on the interaction” value was “with no effect”. With MENNEIQSVLMNALSLQEVHVSGDGSHFQVIAVGELFDGMSRVKKQQTVYGPLMEYIADNRIAAVSIKAYTPAEWARDRKLNGF the “effect of a mutation on the interaction” value was “with no effect”. MENNEIQSVLMNALSLQEVHVSGDGSHFQVIAVGELFDGMSRVKKQQTVYGPLMEYIADNRICAVSIKAYTPAEWARDRKLNGF was tested, and the “effect of a mutation on the interaction” value was “with no effect”.
